Substitutions are numbered along the chain they refer to. Names and notes keep the numbering of the source.
B1: homocitrate synthase ScLys20 (wild type) (Saccharomyces cerevisiae S288C) (protein)
chain: MTAAKPNPYAAKPGDYLSNVNNFQLIDSTLREGEQFANAFFDTEKKIEIARALDDFGVDYIELTSPVASEQSRKDCEAICKLGLKAKILTHIRCHMDDAKVAVETGVDGVDVVIGTSKFLRQYSHGKDMNYIAKSAVEVIEFVKSKGIEIRFSSEDSFRSDLVDLLNIYKTVDKIGVNRVGIADTVGCANPRQVYELIRTLKSVVSCDIECHFHNDTGCAIANAYTALEGGARLIDVSVLGIGERNGITPLGGLMARMIVAAPDYVKSKYKLHKIRDIENLVADAVEVNIPFNNPITGFCAFTHKAGIHAKAILANPSTYEILDPHDFGMKRYIHFANRLTGWNAIKARVDQLNLNLTDDQIKEVTAKIKKLGDVRSLNIDDVDSIIKNFHAEVSTPQVLSAKKNKKNDSDVPELATIPAAKRTKPSA
notes: N-terminal His-tagged recombinant ScLys20
B2: homocitrate synthase ScLys20 S385E variant (Saccharomyces cerevisiae S288C; S385E) (protein)
chain: B1 chain with S385E
notes: as for B1
B3: homocitrate synthase ScLys20 S385F variant (Saccharomyces cerevisiae S288C; S385F) (protein)
chain: B1 chain with S385F
notes: as for B1
B4: homocitrate synthase ScLys20 S385L variant (Saccharomyces cerevisiae S288C; S385L) (protein)
chain: B1 chain with S385L

Legend:
[1] = molecular target: T1, homocitrate synthase ScLys20 S385E variant (Saccharomyces cerevisiae, UniProt P48570, S385E); assay: DCPIP-coupled HCS activity assay with purified enzyme ([…] 2-OG, […] AcCoA); type: biochemical
T1 construct: gene LYS20; N-terminal His-tagged recombinant ScLys20
T1 sequence (P48570 1-428 S385E): B1 chain with S385E

[2] = molecular target: T2, homocitrate synthase ScLys20 S385F variant (Saccharomyces cerevisiae, UniProt P48570, S385F); assay: as above; type: biochemical
T2 construct: gene LYS20; N-terminal His-tagged recombinant ScLys20
T2 sequence (P48570 1-428 S385F): B1 chain with S385F

[3] = molecular target: T3, homocitrate synthase ScLys20 (wild type) (Saccharomyces cerevisiae, UniProt P48570); assay: as above; type: biochemical
T3 construct: gene LYS20; N-terminal His-tagged recombinant ScLys20
T3 sequence (P48570 1-428): B1 chain

purified protein = substrate: O=C(O)CCC(=O)C(=O)O; assay: purified protein; details: active center
[4] = substrate: CC(=O)SCCNC(=O)CCNC(=O)[C@H](O)C(C)(C)COP(=O)(O)OP(=O)(O)OC[C@H]1O[C@@H](n2cnc3c(N)ncnc32)[C@H](O)[C@@H]1OP(=O)(O)O; assay: steady-state kinetics of purified enzyme, DCPIP assay (apparent Km); type: biochemical, Saccharomyces cerevisiae
[5] = Arg31 interacts with 2-OG (homology model)

Molecule | IC50 [1] | IC50 [2] | IC50 [3] | Km (purified protein; [5]) | kcat (purified protein; [5]) | kcat/Km (purified protein; [5]) | Km [4] | kcat [4] | kcat/Km [4] | Km (purified protein) | kcat (purified protein) | kcat/Km (purified protein)
NCCCC[C@H](N)C(=O)O [lysine] | 3.2 ± 0.61 mM | 2 ± 0.68 mM | 1 ± 0.14 mM |  |  |  |  |  |  |  |  | 
B1 |  |  |  | 4600 ± 1260 µM | 0.287 s⁻¹ | 62.5 M⁻¹ s⁻¹ | 24.2 ± 4.21 µM | 0.269 ± 0.014 s⁻¹ | 11100 M⁻¹ s⁻¹ |  |  | 
B2 |  |  |  |  |  |  | 16.1 ± 1.62 µM | 0.241 ± 0.0065 s⁻¹ | 14900 M⁻¹ s⁻¹ | 3110 ± 530 µM | 0.468 s⁻¹ | 150 M⁻¹ s⁻¹
B3 |  |  |  |  |  |  | 22.8 ± 4.88 µM | 0.373 ± 0.023 s⁻¹ | 16400 M⁻¹ s⁻¹ | 1990 ± 450 µM | 0.483 s⁻¹ | 243 M⁻¹ s⁻¹
B4 |  |  |  |  |  |  |  |  |  | 9500 ± 1990 µM | 0.436 s⁻¹ | 46 M⁻¹ s⁻¹
